Publication PMC4614383, “Structural insights into the cooperative remodeling of membranes by amphiphysin/BIN1” (Scientific Reports, 2015)

Target: the molecule itself
Test: cryo-EM 2D class averages and power spectra; 2D classification (Relion) of segments of tubes remodeled by N-BAR, N-BAR-deltaH0 or FL; liposomes 2POPG:1POPE; periodic spacings read from the power spectra; BAR dimers to a lattice on the membrane

B1: full length Drosophila amphiphysin/BIN1 (FL, residues 1-602) (natural protein, UniProt Q7KLE5 1-602, looked up)
chain: MTENKGIMLAKSVQKHAGRAKEKILQNLGKVDRTADEIFDDHLNNFNRQQASANRLQKEFNNYIRCVRAAQAASKTLMDSVCEIYEPQWSGYDALQAQTGASESLWADFAHKLGDQVLIPLNTYTGQFPEMKKKVEKRNRKLIDYDGQRHSFQNLQANANKRKDDVKLTKGREQLEEARRTYEILNTELHDELPALYDSRILFLVTNLQTLFATEQVFHNETAKIYSELEAIVDKLATESQRGSNTLRKQTSNPIKTSSPVQSPVNKLNNANINSNYQNQITTNGGSSLANSPTSTSSSLQEPRFDSVSSTPEPRPESPAAALVSATPSSPVENGVTTKSLERPELSGLNASAKATTTTQTSPTEDKAVVSEAVKPSETEGAAVAASVTPAPPATPAQINGNNNEPSIVKEGGKQPKELPSTTSNAEAAAEAAANNGNSIEEHKQKKLGNDTTVTATETVTVTQHSVTSTDTDNIVTISDTNTDTDTKTSTGTSQKGRPVPVVNRHSVNNLNKNPFEDDDERIYEVPADANTADLPPGVLYRVKATYGYAKEDVDELSFEIGDLIRVIEYDDPEDQEEGWLMGQKEGTNEKGLFPANFTRPI
notes: amphiphysin/BIN1, Drosophila, full length, residues 1-602; Cloned either with a 3C-cleavable hexahistidine tag or a SenP2-cleavable sumo-hexahistidine tag; source: E. coli BL21 gold, purified (His-Trap, anion exchange, SEC)
binding result: binds
